The chains are these.
B1: Hairpin Ribozyme (parent)
chain: GUCCUCUUUCACGUGCGCGUGAAAGAGAGAAGUGAACCAGAGAAACACACGUUGUGGUAUAUUACCUGGUA

The data set covers variants of B1. As to the kind of experiment: self-cleavage, relative activity (ratio to wild type); higher = more cleavage; co-transcriptional.
On to U8C G25C, for which the self-cleavage amounted to 0.148.

U8C U55G: the self-cleavage is 0.101.

Regarding U8A G68A, the self-cleavage worked out at 0.179.

In the case of U9G G42U, the self-cleavage was 0.364.

As for U9C A71U, the self-cleavage amounted to 0.68.

In the case of U9C U62G, the self-cleavage came to 0.199.

On to U9C G13U, for which the self-cleavage came out at 0.469.

As to U9A A49U, the self-cleavage came to 0.179.

Regarding U8G C38G, the self-cleavage came to 0.268.

As to U9A C46G, the self-cleavage was 0.135.

U9A C46U: the self-cleavage worked out at 0.134.

U9A C38U: the self-cleavage is 0.388.

As for U8G U33G, the self-cleavage amounted to 0.111.

On to U8G G42U, for which the self-cleavage stood at 0.254.

For U8G G42C, the self-cleavage came out at 0.284.

Regarding U8C A41G, the self-cleavage is 0.458.

Regarding U8C A41C, the self-cleavage amounted to 0.72.

Regarding U8C C37G, the self-cleavage was determined as 0.214.

For U8G G17U, the self-cleavage is 0.651.

Take U9A A41G: the self-cleavage is 0.675.

As to U9A U52G, the self-cleavage amounted to 0.472.

Turning to U9C G21A, the self-cleavage is 0.5.

For the variant U9C G21C, the self-cleavage turned out to be 0.479.

U9G G56U: the self-cleavage is 0.124.

For the variant U8G G57A, the self-cleavage came to 0.102.

On to U8G G57C, for which the self-cleavage is 0.192.

For U9C A11U, the self-cleavage came out at 0.411.

Regarding U8C A22G, the self-cleavage was found to be 0.515.

For the variant U8C A22C, the self-cleavage was determined as 0.209.

As to U9C C10U, the self-cleavage was determined as 0.527.

As to U9C C10A, the self-cleavage stood at 0.696.

Regarding U8C G27A, the self-cleavage amounted to 0.443.

In the case of U8C G27C, the self-cleavage amounted to 0.152.

On to U8G G29U, for which the self-cleavage stood at 0.112.

Regarding U8G G29A, the self-cleavage is 0.154.

Take U9G A71G: the self-cleavage came out at 0.779.

Consider U9G A71C, for which the self-cleavage turned out to be 1.2.

As for U9G A71U, the self-cleavage amounted to 0.601.

With U9G G15U, the self-cleavage was found to be 0.894.

For the variant U9G G15C, the self-cleavage is 0.893.

With U9A G68A, the self-cleavage is 0.223.

As for U9C C46A, the self-cleavage came to 0.122.

For the variant U9G C16G, the self-cleavage was found to be 0.431.

In the case of U9G A49U, the self-cleavage came out at 0.163.

Consider U9G A49C, for which the self-cleavage is 0.182.

Consider U9G G17A, for which the self-cleavage came to 0.571.

For U9G G17U, the self-cleavage came to 0.847.

For U8C A28G, the self-cleavage was determined as 1.07.

Regarding U8A G42U, the self-cleavage was 0.261.

Turning to U8A G42C, the self-cleavage worked out at 0.147.

As to U9C U55G, the self-cleavage was 0.266.

On to U9A G54C, for which the self-cleavage came to 0.3.

Regarding U8C A26U, the self-cleavage worked out at 0.336.

Regarding U8C U70G, the self-cleavage worked out at 0.35.

For the variant U9G C66A, the self-cleavage came out at 0.279.

Take U9G A24G: the self-cleavage was found to be 0.672.

Take U8G A11G: the self-cleavage was found to be 0.704.

Consider U8G A30G, for which the self-cleavage turned out to be 0.119.

For the variant U8G A30C, the self-cleavage is 0.141.

For U9C A24U, the self-cleavage amounted to 0.677.

U8A U62A: the self-cleavage is 0.105.

In the case of U8C G29C, the self-cleavage was found to be 0.0996.

In the case of U8G A47C, the self-cleavage worked out at 0.266.

In the case of U8G C37U, the self-cleavage was determined as 0.487.

Turning to U8G C37G, the self-cleavage was 0.191.

With U9C G19A, the self-cleavage turned out to be 0.704.

For U9C G32U, the self-cleavage came out at 0.0498.

U9G U55C: the self-cleavage stood at 0.163.

Take U8C U58A: the self-cleavage came out at 0.552.

U8C U58C: the self-cleavage came out at 0.911.

With U8G A24C, the self-cleavage came out at 0.592.

U8G A24U: the self-cleavage amounted to 0.595.

Regarding U8G C66G, the self-cleavage stood at 0.162.

As for U8G C66A, the self-cleavage was found to be 0.169.

U9C G54A: the self-cleavage was 0.501.

Turning to U9C G54C, the self-cleavage stood at 0.413.

As to U9C U67C, the self-cleavage was found to be 0.203.

Turning to U9C U67G, the self-cleavage was determined as 0.283.

U8G A39G: the self-cleavage came to 0.263.

In the case of U8G A36U, the self-cleavage was determined as 0.557.

Turning to U9A A26C, the self-cleavage was determined as 0.364.

Take U9A A26U: the self-cleavage came to 0.424.

For the variant U8G A45C, the self-cleavage is 0.111.

As for U9A C37U, the self-cleavage was 0.317.

Take U9A C37G: the self-cleavage was 0.189.

Consider U9A C37A, for which the self-cleavage came out at 0.193.

On to U8A U9A, for which the self-cleavage came to 0.793.

As to U8A U9G, the self-cleavage came to 0.791.

In the case of U9G U58C, the self-cleavage came to 0.794.

With U9G U58G, the self-cleavage turned out to be 0.579.

In the case of U9A A44G, the self-cleavage is 0.0648.

U9C A26U: the self-cleavage was found to be 0.546.

For the variant U9A C18U, the self-cleavage came to 0.775.

In the case of U8C G15U, the self-cleavage came out at 0.932.

As for U8C G15C, the self-cleavage was found to be 0.565.

For the variant U8G, the self-cleavage stood at 0.764.

For U8C, the self-cleavage came out at 0.739.

As for U8G G56U, the self-cleavage was determined as 0.169.

For U8C G19C, the self-cleavage amounted to 0.232.

As to U9G C18A, the self-cleavage was 0.707.

Take U8A U33G: the self-cleavage stood at 0.0531.

Consider U8A U33A, for which the self-cleavage worked out at 0.0975.

As for U9C U60G, the self-cleavage came to 0.615.

Take U9G U33A: the self-cleavage came to 0.102.

On to U9G U33C, for which the self-cleavage was 0.176.

On to U9G A35G, for which the self-cleavage stood at 0.546.

Consider U9A U14G, for which the self-cleavage was 0.74.

Consider U9A U14C, for which the self-cleavage is 0.62.

U8G G27A: the self-cleavage turned out to be 0.43.

For U8G G27C, the self-cleavage amounted to 0.139.

For the variant U8C G54C, the self-cleavage amounted to 0.346.

For the variant U9G U14G, the self-cleavage was 0.597.

On to U8C A30C, for which the self-cleavage turned out to be 0.201.

As to U8C A43U, the self-cleavage amounted to 0.241.

U8C A43G: the self-cleavage was 0.16.

For the variant U9A U62G, the self-cleavage was 0.122.

For U9C G57C, the self-cleavage turned out to be 0.0619.

Turning to C10A A22C, the self-cleavage came out at 0.636.

With U8C A64C, the self-cleavage worked out at 0.043.

Turning to U9A A45G, the self-cleavage came to 0.172.

On to U8C U14G, for which the self-cleavage turned out to be 0.501.

Take C10A A23C: the self-cleavage amounted to 0.657.

Consider U9G A22G, for which the self-cleavage was 0.79.

In the case of U8C G34U, the self-cleavage stood at 1.32.

Consider U8G G21U, for which the self-cleavage amounted to 0.523.

As to U8G U70C, the self-cleavage came out at 0.675.

In the case of U8G U70G, the self-cleavage came out at 0.608.

Consider U8C A59U, for which the self-cleavage came out at 0.116.

As for U9G C65G, the self-cleavage came to 0.207.

With U9G U63A, the self-cleavage stood at 0.102.

Consider U8C C10U, for which the self-cleavage was found to be 0.564.

Take U8C A31G: the self-cleavage came out at 0.241.

Consider U8C A31U, for which the self-cleavage amounted to 0.14.

On to U8C A31C, for which the self-cleavage came out at 0.0859.

For U8A U52C, the self-cleavage was found to be 0.647.

U8A G40U: the self-cleavage is 0.109.

For U8G U62G, the self-cleavage came to 0.163.

Take U9A A71G: the self-cleavage amounted to 0.707.

Regarding U9A U60G, the self-cleavage is 0.484.

Turning to U9G A11U, the self-cleavage stood at 0.566.

In the case of U9G G69C, the self-cleavage came to 0.299.

For U8C C65G, the self-cleavage came out at 0.143.

As to U9G A41U, the self-cleavage was determined as 1.15.

For U8C C48A, the self-cleavage came out at 0.136.

For the variant U9A A23U, the self-cleavage was 0.472.

As for U9A G42U, the self-cleavage was 0.253.

In the case of U9A U70G, the self-cleavage amounted to 0.532.

With U8C G51C, the self-cleavage was determined as 0.701.

For U8C G51A, the self-cleavage turned out to be 0.855.

As for U8C G51U, the self-cleavage is 0.901.

U8A U60C: the self-cleavage was found to be 0.89.

Consider U9G A39C, for which the self-cleavage amounted to 0.356.

As for U9A C65U, the self-cleavage amounted to 0.335.

Take U9A C65G: the self-cleavage was found to be 0.203.

Turning to U9A G51U, the self-cleavage was determined as 0.675.

On to U8G A61C, for which the self-cleavage came to 0.189.

Regarding U8G A61U, the self-cleavage came out at 0.184.

As for U8C G57U, the self-cleavage worked out at 0.368.

For the variant U8G C48U, the self-cleavage worked out at 0.0825.

Regarding U8G C48G, the self-cleavage was determined as 0.138.

As to U8G C48A, the self-cleavage was 0.146.

For U9G U20G, the self-cleavage is 0.333.

For the variant U9G A28U, the self-cleavage was 0.46.

For the variant U9C A30C, the self-cleavage is 0.0706.

On to U8G U60A, for which the self-cleavage was determined as 0.647.

On to U8G U60C, for which the self-cleavage turned out to be 0.845.

Turning to U8C C18G, the self-cleavage was 0.528.

The values above are taken from the RNAGym collection of RNA variant scans (doi:10.7554/elife.80360).
